The source of these data is the DeepSol protein solubility set.

The nature of the series: soluble on expression in E. coli; label from the status in PepcDB or PDB records.
With “MSSRGVTAPQGFVAAGATAGIKPSGNKDMALVVNQGPEFVGAAVFTRNRVVASPVKYTKKAVANGTLRAVLYNSGNANACNGVQGDKDVHEIVDYLASKLKVDPLDIAACSTGLIGEPLPVTMIKAGVDKLIPALGDNGGEAADSIMTTDTVAKETVVKCNGWTLGGMGKGVGMMAPSLATMLVCLTTDACVTQAQAHAALSKACDVTFNTLDIDGSTSTNDTVILLANGASGITPTESEFNDAVLQACADIADQLQADAEGVTKRVRITVTGTTTDSQALNAARTLGRDNLFKCAMFGSDPNWGRVLAAVGMADADMDPDNISVYFNDQPVCLQSGGTPEARQVDLSGIDIDVRVDLGTGGPGKAFVRTTDLSHQYVEINSAYSSLEHHHHHH”, the “soluble on expression in E. coli” value is listed as “not soluble”. The result for “GSHMYEYPVFSHVQAGMFSPELRTFTKGDAERWVSTTKKASDSAFWLEVEGNSMTTPTGSKTSFPDGMLILVDPEQAVEPGDFCIARLGGDEFTFKKLIRDSGQVFLQPLNPQYPMIPCNESCSVVGKVIASQ” reads “soluble”; that for “SLAKYLELSMGFEEVAYRGLETNSRRLASHVVRNGNILFEIINTLESVAEHYPTVPMSKEEALSIKLDYSADEAHILKSLKEKIIKLTAEIVDENLDRYKYAMDIKAAKENLERSIINSTNFTAAISTIRKSINECVETSKKAIQDNFESFLIQEFVKIHGEGVMDISFNVLDVDSAFQKAIESGAYIIKLPQTMSDVHGSVKLATIAVPYTDIHHTLIQNKDYSGPFLPNYTKSIIEKPETYMHQLESLPPIRLDCIDHCVENYSWNQMMEHARFYANIFGFHKYWSVDEKDVFTGETALKSIVMASSNGKVKMPINEPAKGRKKSQIEEFYDFNGGPGVQHIALKTNDIIATVTSLRKRGIEFNPASQKYYDTLKQRLINDDIILKEDFNSIQNLNILVDYDPETRNNASKTCNYILQIFTKPLHDRPTLFIEIIQRRHHNGFGKGTFKGLFETIEAQQKLRGTLVSSDEG”, “not soluble”; that for “MNFRLSEEHEMLRKMVREFAENEVAPTAAERDEEERFDRGIFNKMAELGLTGIPWPEEYGGIGSDYLAYVIAVEELSRVCASTGVTLSAHISLASWPIYKFGNEEQKQKYLRALATGEKLGAYALSEPGAGSDVASMKTRAVKDGDHYILNGSKVWITNGGEAEIYVVFAVTDPEKRHKGISAFIVEKGTPGFSFGKKEKKLGIRSSPTTELIFEDCRIPKENLLGQEGEGFKIAMMTLDGGRNGIAAQAVGIAQGALDAAVDYAKQRVQFGKPIIEQQGVAFKLADMATAIEAARLLTYQAAWLESNGLPYGKASAMAKLFAGDTAMKVTVEAVQIFGGNGYTKDYPVERFMRDAKITQIYEGTQEIQRLVISRMLTRN”, “soluble”. The same measure for “MHHHHHHSSGRENLYFQGIRMSQILEPRSEEDWTAHRTRIVCTMGPACWNVDTLVKMIDAGMNVCRLNFSHGDHETHARTVQNIQEAMKQRPEARLAILLDTKGPEIRTGFLKDHKPITLQQGATLKIVTDYNLIGDETTIACSYGALPQSVKPGNTILIADGSLSVKVVEVGSDYVITQAQNTATIGERKNMNLPNVKVQLPVIGEKDKHDILNFGIPMGCNFIAASFVQSADDVRYIRGLLGPRGRHIRIIPKIENVEGLVNFDEILAEADGIMIARGDLGMEIPPEKVFLAQKMMIAKCNVVGKPVITATQMLESMIKNPRPTRAEAADVANAVLDGTDCVMLSGETANGEFPVITVETMARICYEAETCVDYPALYRAMCLAVPPPISTQEAVARAAVETAECVNAAIILALTETGQTARLIAKYRPMQPILALSASESTIKHLQVIRGVTTMQVPSFQGTDHVIRNAIVVAKERELVTEGESIVAVHGMKEEVAGSSNLLKVLTVE”: “soluble”. Regarding “MGSDKIHHHHHHMYLLDSTIAKKIVSRTMKIIGHNINVMNGQGVILGSGDPKRIGSTHEGALLAIAQNRNVELSDEVASGLHGVKPGINLPLHYQGQIIGVIGITGAPDELAHYGELLKMTAEMIVEQANQQDKLQWENRQREEFILQLIKANTDDEQLQRWAKQLDIDINLPRVAAIIEISEKLSAPIHKTASLINAAASESSVDERNPRVSETLKQVLHLLQNPDRGNLIAMTSMSQLVILKPAFLDGKQWDPELENQRIDKLLQRLPAQMGLHFKIALGHFFPEKGGIARSYQTAQETLNLGKQLNPEGTKYLFEDYSLQVLLSGLKHDWRGQALASPYQQLTQADKNGQLRKTLAAYITHFGDAQQCANALFIHRNTLRYRLDKIQQLTQTDIQSLHGLLSLYLGQLLDTSANPR”, the “soluble on expression in E. coli” value is reported as “not soluble”. Regarding “MSTRPEVFDLIVIGGGPGGSTLASFVAMRGHRVLLLEREAFPRHQIGESLLPATVHGICAMLGLTDEMKRAGFPIKRGGTFRWGKEPEPWTFGFTRHPDDPYGFAYQVERARFDDMLLRNSERKGVDVRERHEVIDVLFEGERAVGVRYRNTEGVELMAHARFIVDASGNRTRVSQAVGERVYSRFFQNVALYGYFENGKRLPAPRQGNILSAAFQDGWFWYIPLSDTLTSVGAVVSREAAEAIKDGHEAALLRYIDRCPIIKEYLAPATRVTTGDYGEIRIRKDYSYCNTSFWKNGMALVGDAACFVDPVFSSGVHLATYSALLVARAINTCLAGEMSEQRCFEEFERRYRREYGNFYQFLVAFYDMNQDTDSYFWSARKIINTEERANEAFVRLIAGRSNLDEPVFQSVAKDFFTEREGFGAWFGGLVTSMAKGDGGGLMVGEGATDATESTGFAPENFMQGFTREITELQHLAMFGEDRGPETPLWSGGLVPSRDGLAWAVESGEDAAG”, the “soluble on expression in E. coli” value is recorded as “soluble”. In the case of “MQNIHKIKQDMCDIGRRIYNRQFAAANDGNITVRVSENEVLCTPTMHCKGYLTPDDISMIDMTGKQIAGRKKRSSEALLHLEIYKQRADIKSVVHCHPPHATAFAIAREPIPQCILPEVEVFLGDVPITKYETPGGQAFADTIIPFVEKTNVMILANHGTVSYGESVERAYWWTEILDSYCRMLLLAKQLGNVSYLDETKSRELLELKDKWGFKDPRNTSEYEDCDICANDIFRDSWKDSGVERRAFAPPPPIKTSGSASSAPAGVDEEQLVKLITNEVMRQMKASS”, the “soluble on expression in E. coli” value is “not soluble”. The result for “MGSDKIHHHHHHMTTLNAIFRPFIQPHRYKIAKGGRGSGKSWAIARLLVEIARRGTYRFLCAREFQASMADSVIQLIADTIQREGYLKEFEIQKAYIRHLAATDSLFMFYGIKNNVTKIKSLEGIDIAWVEEAEAVTKESWDILIPTIRKPGSEIWVSFNSKNILDDTYQRFVVNPPDDICLLTVHYTDNPHFPEVLRLEMEECKCKDYDLYLHIWEGQPVADSDLAIIKPLWIAAAVDAHMTLGFDAVGEKRLGFDVADEGKTATPCALCRAQSC” reads “not soluble”.

“MKALKLYGVEDLRYEDNEKPVIESANDVIVKVRATGICGSDTSRYKKMGPYIKGMPFGHEFSGVVDAIGSDVTHVNVGDKVTGCPAIPCYQCEYCLKGEYARCEKLFVIGSYEPGSFAEYVKLPAQNVLKVPDNVDYIEAAMVEPSAVVAHGFYKSNIQPGMTVAVMGCGSIGLLAIQWARIFGAAHIIAIDIDAHKLDIATSLGAHQTINSKEENLEKFIENHYANQIDLAIESSGAKVTIGQILTLPKKGGEVVLLGIPYDDIEIDRVHFEKILRNELTVCGSWNCLSSNFPGKEWTATLHYMKTKDINVKPIISHFLPLEKGPETFDKLVNKKERFDKVMFTIY”: the “soluble on expression in E. coli” value is recorded as “not soluble”. As for “MSLSDQTLQDILRYLTEETGLAPFQVANTVELLREGGTVPFIARYRKERTGELDEVGIRGIEERLAYFTELEERKLTVLKSIEEQGKLTPELADRIRTSRQKTEVEDLYLPYKPKRRTKATIARERGLEPLADLMAAQELTAGTPEEATLPFVDPAGEVPDAAAALEGAGHILAERLADDADARAFVRRLTADQGIFCSRVAADRKGAVTKFEMYYDHREPLKSVPSHRMLAMRRGEKEEVLVLTIEAPTEEILAGLRARIAGRASIFRQLLEGAAEDAYKRLIAPSIEVELRLEAKQRADEAAITVFAQNLRNLLLAPPAGGKRVLGVDPGLRTGSKLAAVDGTGRFLEHVTIYPHAGGEGKVAAAKREFLRLVECHGIEMVAVGNGTAGREMEQFAKETLAEGGKRIPVVMVSEAGASVYSASEIAREEFPDLDLTVRGAISIARRLQDPLAELVKIDPKSIGVGQYQHDVDQRALKKSLDAVVESCVNYVGVDLNTASWALLSYVSGVGPSLARAIVRHRDEHGPFPARRALMKVPRFGDKAFEQAAGFLRIRGGEHPLDATAVHPERYPVVEAMATDLGVSLSQLAADPALPARIDLKRYVTDAVGLPTLRDIMEELKKPGRDPREEFRTAAFRDDVTEIGDLKEGMVLQGVVTNVTAFGAFVDVGVHQDGLVHVSHLSVKFVKDPAEAVRVGQVVQVKVLSVDVQRKRISLSIREAAPGGAPRSTEGHHHHHH”, the “soluble on expression in E. coli” value was “soluble”.
